Results: the RNAGym collection of RNA variant scans (doi:10.1093/molbev/msab373)

B1: Azoarcus group I ribozyme (parent)
chain: GUGCCUUGCGCCGGGAAACCACGCAAGGGAUGGUGUCAAAUUCGGCGAAACCUAAGCGCCCGCCCGGGCGUAUGGCAACGCCGAGCCAAGCUUCGGCGCCUGCGCCGAUGAAGGUGUAGAGACUAGACGGCACCCACCUAAGGCAAACGCUAUGGUGAAGGCAUAGUCCAGGGAGUGGCGAAAGUCACACAAACCGG

Variants of: B1
Assay: reverse-splicing fitness (ratio to wild type); higher = more active; in vitro selection; Mg2+ level not given
In short: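 An in vitro group I ribozyme library with randomized positions was T7-transcribed and gel-purified. In triplicate, 10 pmol RNA in EPPS pH 7.5 was reacted with 50 pmoles of a 30-nt RNA substrate for 1 h at 37 °C across several added MgCl2 levels (1–48 mM), then stopped with EDTA. Products were reverse transcribed from a substrate-complementary primer, PCR-amplified and sequenced (HiSeq 4000). Fitness is a variant's read proportion after selection over that before, normalised to wild type.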

Row | Variant | reverse-splicing fitness
1 | GUGCCUUGCGCCGGGAAACCACGCAAGGGAUGGUGUCAAAUUCGGCGAAACCUAAGCGCCCGCCCGGGCGUAUGGCAACGCCGAGCCAAGCUUCGGCGCCUGCGCCGAUGCAGGUGUAGUGACUAGACGGCACCCACCUAAGGCCAACGUUAUGGUGAAGGCAUAGUCUAGGGAGGGGCGAAAGUCACACAAACCGG | 0.00251
2 | GUGCCUUGCGCCGGGAAACCACGCAAGGGAUGGUGUCAAAUUCGGCGAAACCUAAGCGCCCGCCCGGGCGUAUGGCAACGCCGAGCCAAGCUUCGGCGCCUGCGCCGAUGCAGGUGUAGUGACUAGACGGCACCCACCUAAGGCCAACGUUAUGGUGAAGGCAUAGUCCAGGGAGAGGCGAAAGUCACACAAACCGG | 0.0649
3 | GUGCCUUGCGCCGGGAAACCACGCAAGGGAUGGUGUCAAAUUCGGCGAAACCUAAGCGCCCGCCCGGGCGUAUGGCAACGCCGAGCCAAGCUUCGGCGCCUGCGCCGAUGCAGGUGUAGUGACUAGACGGCACCCACCUAAGGCCAACGUUAUGGUGAAGGCAUAGUCCAGGGAGCGGCGAAAGUCACACAAACCGG | 0.0487
4 | GUGCCUUGCGCCGGGAAACCACGCAAGGGAUGGUGUCAAAUUCGGCGAAACCUAAGCGCCCGCCCGGGCGUAUGGCAACGCCGAGCCAAGCUUCGGCGCCUGCGCCGAUGCAGGUGUAGUGACUAGACGGCACCCACCUAAGGCCAACGUUAUGGUGAAGGCAUAGUCCAGGGAGGGGCGAAAGUCACACAAACCGG | 0.0246
5 | GUGCCUUGCGCCGGGAAACCACGCAAGGGAUGGUGUCAAAUUCGGCGAAACCUAAGCGCCCGCCCGGGCGUAUGGCAACGCCGAGCCAAGCUUCGGCGCCUGCGCCGAUGCAGGUGUAGUGACUAGACGGCACCCACCUAAGGCCAACGCUAUGGUGAAGGCAUAGUCAAGGGAGUGGCGAAAGUCACACAAACCGG | 0.00529
6 | GUGCCUUGCGCCGGGAAACCACGCAAGGGAUGGUGUCAAAUUCGGCGAAACCUAAGCGCCCGCCCGGGCGUAUGGCAACGCCGAGCCAAGCUUCGGCGCCUGCGCCGAUGCAGGUGUAGUGACUAGACGGCACCCACCUAAGGCCAACGCUAUGGUGAAGGCAUAGUCAAGGGAGAGGCGAAAGUCACACAAACCGG | 0.00217
7 | GUGCCUUGCGCCGGGAAACCACGCAAGGGAUGGUGUCAAAUUCGGCGAAACCUAAGCGCCCGCCCGGGCGUAUGGCAACGCCGAGCCAAGCUUCGGCGCCUGCGCCGAUGCAGGUGUAGUGACUAGACGGCACCCACCUAAGGCCAACGCUAUGGUGAAGGCAUAGUCAAGGGAGCGGCGAAAGUCACACAAACCGG | 0.00231
8 | GUGCCUUGCGCCGGGAAACCACGCAAGGGAUGGUGUCAAAUUCGGCGAAACCUAAGCGCCCGCCCGGGCGUAUGGCAACGCCGAGCCAAGCUUCGGCGCCUGCGCCGAUGCAGGUGUAGUGACUAGACGGCACCCACCUAAGGCCAACGCUAUGGUGAAGGCAUAGUCAAGGGAGGGGCGAAAGUCACACAAACCGG | 0.00212
9 | GUGCCUUGCGCCGGGAAACCACGCAAGGGAUGGUGUCAAAUUCGGCGAAACCUAAGCGCCCGCCCGGGCGUAUGGCAACGCCGAGCCAAGCUUCGGCGCCUGCGCCGAUGCAGGUGUAGUGACUAGACGGCACCCACCUAAGGCCAACGCUAUGGUGAAGGCAUAGUCGAGGGAGUGGCGAAAGUCACACAAACCGG | 0.0517
10 | GUGCCUUGCGCCGGGAAACCACGCAAGGGAUGGUGUCAAAUUCGGCGAAACCUAAGCGCCCGCCCGGGCGUAUGGCAACGCCGAGCCAAGCUUCGGCGCCUGCGCCGAUGCAGGUGUAGUGACUAGACGGCACCCACCUAAGGCCAACGCUAUGGUGAAGGCAUAGUCGAGGGAGAGGCGAAAGUCACACAAACCGG | 0.00676
11 | GUGCCUUGCGCCGGGAAACCACGCAAGGGAUGGUGUCAAAUUCGGCGAAACCUAAGCGCCCGCCCGGGCGUAUGGCAACGCCGAGCCAAGCUUCGGCGCCUGCGCCGAUGCAGGUGUAGUGACUAGACGGCACCCACCUAAGGCCAACGCUAUGGUGAAGGCAUAGUCGAGGGAGCGGCGAAAGUCACACAAACCGG | 0.00626
12 | GUGCCUUGCGCCGGGAAACCACGCAAGGGAUGGUGUCAAAUUCGGCGAAACCUAAGCGCCCGCCCGGGCGUAUGGCAACGCCGAGCCAAGCUUCGGCGCCUGCGCCGAUGCAGGUGUAGUGACUAGACGGCACCCACCUAAGGCCAACGCUAUGGUGAAGGCAUAGUCGAGGGAGGGGCGAAAGUCACACAAACCGG | 0.0018
13 | GUGCCUUGCGCCGGGAAACCACGCAAGGGAUGGUGUCAAAUUCGGCGAAACCUAAGCGCCCGCCCGGGCGUAUGGCAACGCCGAGCCAAGCUUCGGCGCCUGCGCCGAUGCAGGUGUAGUGACUAGACGGCACCCACCUAAGGCCAACGCUAUGGUGAAGGCAUAGUCUAGGGAGUGGCGAAAGUCACACAAACCGG | 0.0701
14 | GUGCCUUGCGCCGGGAAACCACGCAAGGGAUGGUGUCAAAUUCGGCGAAACCUAAGCGCCCGCCCGGGCGUAUGGCAACGCCGAGCCAAGCUUCGGCGCCUGCGCCGAUGCAGGUGUAGUGACUAGACGGCACCCACCUAAGGCCAACGCUAUGGUGAAGGCAUAGUCUAGGGAGAGGCGAAAGUCACACAAACCGG | 0.0108
15 | GUGCCUUGCGCCGGGAAACCACGCAAGGGAUGGUGUCAAAUUCGGCGAAACCUAAGCGCCCGCCCGGGCGUAUGGCAACGCCGAGCCAAGCUUCGGCGCCUGCGCCGAUGCAGGUGUAGUGACUAGACGGCACCCACCUAAGGCCAACGCUAUGGUGAAGGCAUAGUCUAGGGAGCGGCGAAAGUCACACAAACCGG | 0.0145
16 | GUGCCUUGCGCCGGGAAACCACGCAAGGGAUGGUGUCAAAUUCGGCGAAACCUAAGCGCCCGCCCGGGCGUAUGGCAACGCCGAGCCAAGCUUCGGCGCCUGCGCCGAUGCAGGUGUAGUGACUAGACGGCACCCACCUAAGGCCAACGCUAUGGUGAAGGCAUAGUCUAGGGAGGGGCGAAAGUCACACAAACCGG | 0.00215
17 | GUGCCUUGCGCCGGGAAACCACGCAAGGGAUGGUGUCAAAUUCGGCGAAACCUAAGCGCCCGCCCGGGCGUAUGGCAACGCCGAGCCAAGCUUCGGCGCCUGCGCCGAUGCAGGUGUAGUGACUAGACGGCACCCACCUAAGGCCAACGCUAUGGUGAAGGCAUAGUCCAGGGAGAGGCGAAAGUCACACAAACCGG | 0.244
18 | GUGCCUUGCGCCGGGAAACCACGCAAGGGAUGGUGUCAAAUUCGGCGAAACCUAAGCGCCCGCCCGGGCGUAUGGCAACGCCGAGCCAAGCUUCGGCGCCUGCGCCGAUGCAGGUGUAGUGACUAGACGGCACCCACCUAAGGCCAACGCUAUGGUGAAGGCAUAGUCCAGGGAGCGGCGAAAGUCACACAAACCGG | 0.17
19 | GUGCCUUGCGCCGGGAAACCACGCAAGGGAUGGUGUCAAAUUCGGCGAAACCUAAGCGCCCGCCCGGGCGUAUGGCAACGCCGAGCCAAGCUUCGGCGCCUGCGCCGAUGCAGGUGUAGUGACUAGACGGCACCCACCUAAGGCCAACGCUAUGGUGAAGGCAUAGUCCAGGGAGGGGCGAAAGUCACACAAACCGG | 0.0856
20 | GUGCCUUGCGCCGGGAAACCACGCAAGGGAUGGUGUCAAAUUCGGCGAAACCUAAGCGCCCGCCCGGGCGUAUGGCAACGCCGAGCCAAGCUUCGGCGCCUGCGCCGAUGCAGGUGUAGUGACUAGACGGCACCCACCUAAGGCGAACGCUAUGGUGAAGGCAUAGUCCAGGGAGUGGCGAAAGUCACACAAACCGG | 0.675
21 | GUGCCUUGCGCCGGGAAACCACGCAAGGGAUGGUGUCAAAUUCGGCGAAACCUAAGCGCCCGCCCGGGCGUAUGGCAACGCCGAGCCAAGCUUCGGCGCCUGCGCCGAUGCAGGUGUAGUGACUAGACGGCACCCACCUAAGGCGAACGAUAUGGUGAAGGCAUAGUCCAGGGAGUGGCGAAAGUCACACAAACCGG | 0.099
22 | GUGCCUUGCGCCGGGAAACCACGCAAGGGAUGGUGUCAAAUUCGGCGAAACCUAAGCGCCCGCCCGGGCGUAUGGCAACGCCGAGCCAAGCUUCGGCGCCUGCGCCGAUGCAGGUGUAGUGACUAGACGGCACCCACCUAAGGCGAACGAUAUGGUGAAGGCAUAGUCAAGGGAGUGGCGAAAGUCACACAAACCGG | 0.0061
23 | GUGCCUUGCGCCGGGAAACCACGCAAGGGAUGGUGUCAAAUUCGGCGAAACCUAAGCGCCCGCCCGGGCGUAUGGCAACGCCGAGCCAAGCUUCGGCGCCUGCGCCGAUGCAGGUGUAGUGACUAGACGGCACCCACCUAAGGCGAACGAUAUGGUGAAGGCAUAGUCAAGGGAGAGGCGAAAGUCACACAAACCGG | 0.0071
24 | GUGCCUUGCGCCGGGAAACCACGCAAGGGAUGGUGUCAAAUUCGGCGAAACCUAAGCGCCCGCCCGGGCGUAUGGCAACGCCGAGCCAAGCUUCGGCGCCUGCGCCGAUGCAGGUGUAGUGACUAGACGGCACCCACCUAAGGCGAACGAUAUGGUGAAGGCAUAGUCAAGGGAGCGGCGAAAGUCACACAAACCGG | 0.00438
25 | GUGCCUUGCGCCGGGAAACCACGCAAGGGAUGGUGUCAAAUUCGGCGAAACCUAAGCGCCCGCCCGGGCGUAUGGCAACGCCGAGCCAAGCUUCGGCGCCUGCGCCGAUGCAGGUGUAGUGACUAGACGGCACCCACCUAAGGCGAACGAUAUGGUGAAGGCAUAGUCAAGGGAGGGGCGAAAGUCACACAAACCGG | 0.00318
26 | GUGCCUUGCGCCGGGAAACCACGCAAGGGAUGGUGUCAAAUUCGGCGAAACCUAAGCGCCCGCCCGGGCGUAUGGCAACGCCGAGCCAAGCUUCGGCGCCUGCGCCGAUGCAGGUGUAGUGACUAGACGGCACCCACCUAAGGCGAACGAUAUGGUGAAGGCAUAGUCGAGGGAGUGGCGAAAGUCACACAAACCGG | 0.0103
27 | GUGCCUUGCGCCGGGAAACCACGCAAGGGAUGGUGUCAAAUUCGGCGAAACCUAAGCGCCCGCCCGGGCGUAUGGCAACGCCGAGCCAAGCUUCGGCGCCUGCGCCGAUGCAGGUGUAGUGACUAGACGGCACCCACCUAAGGCGAACGAUAUGGUGAAGGCAUAGUCGAGGGAGAGGCGAAAGUCACACAAACCGG | 0.00653
28 | GUGCCUUGCGCCGGGAAACCACGCAAGGGAUGGUGUCAAAUUCGGCGAAACCUAAGCGCCCGCCCGGGCGUAUGGCAACGCCGAGCCAAGCUUCGGCGCCUGCGCCGAUGCAGGUGUAGUGACUAGACGGCACCCACCUAAGGCGAACGAUAUGGUGAAGGCAUAGUCGAGGGAGCGGCGAAAGUCACACAAACCGG | 0.00682
29 | GUGCCUUGCGCCGGGAAACCACGCAAGGGAUGGUGUCAAAUUCGGCGAAACCUAAGCGCCCGCCCGGGCGUAUGGCAACGCCGAGCCAAGCUUCGGCGCCUGCGCCGAUGCAGGUGUAGUGACUAGACGGCACCCACCUAAGGCGAACGAUAUGGUGAAGGCAUAGUCGAGGGAGGGGCGAAAGUCACACAAACCGG | 0.00255
30 | GUGCCUUGCGCCGGGAAACCACGCAAGGGAUGGUGUCAAAUUCGGCGAAACCUAAGCGCCCGCCCGGGCGUAUGGCAACGCCGAGCCAAGCUUCGGCGCCUGCGCCGAUGCAGGUGUAGUGACUAGACGGCACCCACCUAAGGCGAACGAUAUGGUGAAGGCAUAGUCUAGGGAGUGGCGAAAGUCACACAAACCGG | 0.0133
